{
  "source": "paper PMC2788227",
  "about": "(PLoS ONE, 2009)",
  "key": {"[1]": {"test_system": "CC(=O)[C@@H](O)[C@H](O)COP(=O)(O)O", "experiment": "purified protein", "conditions": "pH 7.8; 22.0 °C"}, "[2]": {"test_system": "NC(=O)C1=CN([C@@H]2O[C@H](COP(=O)(O)OP(=O)(O)OC[C@H]3O[C@@H](n4cnc5c(N)ncnc54)[C@H](OP(=O)(O)O)[C@@H]3O)[C@@H](O)[C@H]2O)C=CC1", "experiment": "purified protein", "conditions": "pH 7.8; 22.0 °C; varied: cofactor"}},
  "data": [
    {"substance": "F. tularensis MEP synthase (IspC; 1-deoxy-D-xylulose 5-phosphate reductoisomerase) (Francisella tularensis subsp. holarctica LVS)", "values": [
      {"measurement": "Km", "setting": "[1]", "value": "103.7 ± 12.1", "unit": "µM"},
      {"measurement": "Km", "setting": "[2]", "value": "13.3 ± 1.5", "unit": "µM"}
    ]}
  ]
}
